In the supplement of paper PMC10126150:
± gives the standard deviation of the averaged measurements.

Test system: ATP
Experiment: switch fluorescence ratio, 500 uM ATP over buffer (Cy3 cluster intensity, sum of 5 cycles each) (fold (ratio)); higher = stronger signal-on switching upon ATP binding; sequences stand for … in TCGTCGGCAGCGTCAGATGTGTATAAGAGACAGTTTTTTTTTTTTTTTTTTTTTTTTT…TC
Conditions: aptamer strand: ATP DNA aptamer (quencher-CACCTGGGGGAGTATTGCGGAGGAAGG + anchor), 100 nM annealed; ATP concentration: 500 uM
Method in brief: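 Imaging in selection buffer was followed by imaging after 15 min with 500 uM ATP at 22 °C, for Cy3-labelled switching-strand clusters annealed to 100 nM quencher-labelled ATP aptamer on a modified Illumina MiSeq flow-cell. Five of these buffer/ATP cycles ran, separated by NaOH stripping and re-annealing. The fluorescence ratio per cluster is summed target-cycle over summed buffer-cycle Cy3 intensity, averaged per switch-domain sequence; clusters outside 100-1000 RFU were removed.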
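Also: ATP exposure 15 min at 22 °C before imaging.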

Row | Sequence | switch fluorescence ratio
1 | CCTTGCCGGG | 1.05 ± 0.019
2 | CCTTGGGGGG | 1.03 ± 0.11
3 | CCTTGTAGGT | 1.02 ± 0.038
4 | CCTTGTATAA | 1.07 ± 0.014
5 | CCTTGTATAT | 1.077 ± 0.0083
6 | CCTTTATCGG | 0.997 ± 0.012
7 | CCTTTATGGG | 0.9952 ± 0.0095
8 | CCTTTCCGGG | 1.21 ± 0.048
9 | CCTTTCTTTT | 1.04 ± 0.049
10 | CCTTTGGATA | 1.13 ± 0.16
11 | CCTTTTAGCA | 2.07 ± 0.12
12 | CCTTTTAGCG | 1.16 ± 0.055
13 | CCTTTTAGTT | 0.988 ± 0.026
14 | CCTTTTATTT | 1.04 ± 0.018
15 | CCTTTTGCCA | 1.1 ± 0.028
16 | CCTTTTGGGT | 1.015 ± 0.0095
17 | CGAAAAAAAT | 1.03 ± 0.035
18 | CGAAACATGA | 1.01 ± 0.014
19 | CGAAAGGGCT | 0.989 ± 0.036
20 | CGAAATGTCC | 1.061 ± 0.002
21 | CGAAATTTGG | 1.03 ± 0.044
22 | CGAACGGGGA | 1.16 ± 0.049
23 | CGAAGAACTA | 1.023 ± 0.0028
24 | CGAAGACCAG | 1.05 ± 0.081
25 | CGAAGCGGGG | 1.08 ± 0.054
26 | CGAAGCTGGT | 1.075 ± 0.0037

Row | Sequence | switch fluorescence ratio
27 | CGAAGGGTAA | 1.02 ± 0.028
28 | CGAAGGGTTA | 0.971 ± 0.027
29 | CGAAGTATAG | 1.37 ± 0.038
30 | CGAAGTTTGT | 0.98 ± 0.01
31 | CGAATAGTTG | 1.005 ± 0.0085
32 | CGAATGAGGT | 0.99 ± 0.04
33 | CGAATTCCGG | 1.01 ± 0.084
34 | CGAATTGGTG | 1.03 ± 0.04
35 | CGACAAGAGA | 1.47 ± 0.085
36 | CGACAATGCC | 1.29 ± 0.03
37 | CGACACGCTG | 1.05 ± 0.058
38 | CGACATGGTG | 1.07 ± 0.027
39 | CGACCGGGTA | 1.02 ± 0.023
40 | CGACCTACAG | 1.02 ± 0.02
41 | CGACGTGATG | 1.227 ± 0.0082
42 | CGACGTGCGG | 0.9944 ± 0.0062
43 | CGACGTTCAC | 1.96 ± 0.051
44 | CGACTCATAT | 1.52 ± 0.11
45 | CGACTCGAAA | 1.02 ± 0.016
46 | CGACTGAGGT | 1.03 ± 0.029
47 | CGACTGGAAC | 1.207 ± 0.008
48 | CGACTTACGG | 1.11 ± 0.03
49 | CGAGAAATTT | 1.01 ± 0.022
50 | CGAGAAGGGT | 0.997 ± 0.039
51 | CGAGAGTGTT | 0.995 ± 0.026
52 | CGAGATACTC | 1.86 ± 0.17

Row | Sequence | switch fluorescence ratio
53 | CGAGATCGAC | 0.97 ± 0.012
54 | CGAGCATAGG | 1.23 ± 0.085
55 | CGAGCGTGTG | 0.9998 ± 0.0047
56 | CGAGCTGGTT | 0.991 ± 0.0027
57 | CGAGCTTGAA | 1.03 ± 0.022
58 | CGAGCTTTGA | 1.034 ± 0.0084
59 | CGAGGAGCAT | 1.01 ± 0.058
60 | CGAGGAGGGA | 0.9686 ± 0.0093
61 | CGAGGATAAA | 0.994 ± 0.027
62 | CGAGGATTTC | 0.9885 ± 0.0094
63 | CGAGGATTTG | 0.994 ± 0.018
64 | CGAGGCCGGG | 1.01 ± 0.015
65 | CGAGGGACCC | 1.01 ± 0.044
66 | CGAGGGAGGC | 1.011 ± 0.0095
67 | CGAGGGGCCC | 1.01 ± 0.036
68 | CGAGGGGGCT | 0.99 ± 0.02
69 | CGAGGGGTAC | 1.4 ± 0.0095
70 | CGAGGGTAGA | 1.01 ± 0.03
71 | CGAGGGTCCG | 0.99899 ± 0.00035
72 | CGAGGGTGTA | 0.999 ± 0.0014
73 | CGAGGGTTTG | 0.9968 ± 0.0032
74 | CGAGGTGGGT | 1.01 ± 0.049
75 | CGAGGTTCTG | 0.97 ± 0.039
76 | CGAGTATCTA | 0.993 ± 0.029
77 | CGAGTATTTT | 1.024 ± 0.0022
78 | CGAGTCTCGT | 1.03 ± 0.04

Row | Sequence | switch fluorescence ratio
79 | CGAGTGGGGT | 1.01 ± 0.043
80 | CGAGTGTGGG | 1.01 ± 0.021
81 | CGAGTTTTCG | 1 ± 0.03
82 | CGATAACGGG | 1.07 ± 0.077
83 | CGATAATTTA | 1 ± 0.053
84 | CGATAGAAGT | 1.01 ± 0.016
85 | CGATAGGTTT | 1 ± 0.019
86 | CGATATCTAC | 1.06 ± 0.016
87 | CGATATGGTT | 1 ± 0.025
88 | CGATCGGCTG | 0.993 ± 0.019
89 | CGATCGGTGG | 1.01 ± 0.058
90 | CGATCTTGTG | 0.988 ± 0.01
91 | CGATGACATG | 0.9877 ± 0.0082
92 | CGATGATTGT | 1.03 ± 0.059
93 | CGATGCGGGG | 1.011 ± 0.0095
94 | CGATGCTCCG | 0.932 ± 0.024
95 | CGATGCTCTG | 1.01 ± 0.063
96 | CGATGCTGGT | 1.02 ± 0.053
97 | CGATGGAATC | 1.69 ± 0.042
98 | CGATGGAGAG | 1.0297 ± 0.00016
99 | CGATGGCGAC | 1.016 ± 0.0051
100 | CGATGGGAGG | 1.06 ± 0.073
101 | CGATGGGATT | 1.056 ± 0.0043
102 | CGATGGGGGA | 1.02 ± 0.018
103 | CGATGGGGGC | 0.957 ± 0.068
104 | CGATGGGTAA | 1 ± 0.033

Row | Sequence | switch fluorescence ratio
105 | CGATGGTACG | 0.946 ± 0.05
106 | CGATGGTGAA | 1.02 ± 0.035
107 | CGATGTGTGG | 0.986 ± 0.015
108 | CGATTAGTCT | 0.9951 ± 0.0021
109 | CGATTCGAGT | 0.967 ± 0.016
110 | CGATTCGTCT | 1.05 ± 0.05
111 | CGATTGAATC | 0.991 ± 0.021
112 | CGATTGATCA | 1.004 ± 0.0075
113 | CGATTTTTAG | 0.98 ± 0.032
114 | CGATTTTTGT | 0.982 ± 0.02
115 | CGCAAAAGGG | 1.54 ± 0.41
116 | CGCAAAGATT | 1.06 ± 0.024
117 | CGCAAGTATG | 1.26 ± 0.036
118 | CGCACCACGA | 1.208 ± 0.0072
119 | CGCAGATTCG | 1.01 ± 0.024
120 | CGCAGGATGG | 1.05 ± 0.05
121 | CGCAGGGAGT | 1.041 ± 0.01
122 | CGCAGGGTTC | 1.13 ± 0.12
123 | CGCATATGGC | 2.459 ± 0.016
124 | CGCATCCCGC | 1.37 ± 0.024
125 | CGCATCGCGT | 1.02 ± 0.015
126 | CGCATCGGTC | 1.16 ± 0.049
127 | CGCATGATAG | 1.24 ± 0.036
128 | CGCATGTCTC | 1.81 ± 0.11
129 | CGCATTTTGC | 1.19 ± 0.15
130 | CGCCATGGCC | 0.9924 ± 0.0066

Row | Sequence | switch fluorescence ratio
131 | CGCCATGGGT | 0.9915 ± 0.0027
132 | CGCCATTTTT | 0.9822 ± 0.0022
133 | CGCCCCAGGA | 1.85 ± 1.1
134 | CGCCCGGAAT | 1.97 ± 0.3
135 | CGCCCGGTAA | 1.13 ± 0.043
136 | CGCCCGTTGT | 1.01 ± 0.013
137 | CGCCCTTGGG | 0.992 ± 0.024
138 | CGCCGACGGC | 1.01 ± 0.018
139 | CGCCGGAGGA | 0.9697 ± 0.0067
140 | CGCCGGCTTT | 1.019 ± 0.0085
141 | CGCCGGGTCC | 1.05 ± 0.02
142 | CGCCTAAACG | 1.04 ± 0.042
143 | CGCCTCGTAC | 1.9 ± 0.062
144 | CGCCTGGGGT | 1.64 ± 0.92
145 | CGCGAAGGGT | 1.01 ± 0.026
146 | CGCGACCATT | 0.967 ± 0.051
147 | CGCGAGAGTT | 1.02 ± 0.0018
148 | CGCGAGCTTT | 1.015 ± 0.0032
149 | CGCGAGGATG | 1.022 ± 0.0099
150 | CGCGATTTTA | 1.04 ± 0.019
151 | CGCGCGGGTG | 1.121 ± 0.011
152 | CGCGCTGACA | 1.009 ± 0.0057
153 | CGCGGAGCGC | 1.17 ± 0.15
